In patent US12291570B2, “Treatment of metastatic pancreatic adenocarcinoma” (BioLineRx Ltd., priority 2018, dated 2025):
Square brackets hold non-standard residues; d marks the D form. Ends that are not written are not given here. 2Nal = N[C@@H](Cc1ccc2ccccc2c1)C(=O)O; Cit = NC(=O)NCCC[C@H](N)C(=O)O

Legend:
[1] = target: CXCR4 (Homo sapiens, UniProt P61073); conditions: read-out: IC50, binds to CXCR4 with high affinity; cited from earlier work
[2] = Solubility of BL-8040 powder; assay type: physicochemical
[3] = tested on: metastatic pancreatic adenocarcinoma (PDAC); conditions: cited from earlier work
[4] = tested on: human keratinocytes and normal human hematopoietic cells; conditions: cited from earlier work
[5] = tested on: metastatic pancreatic cancer; conditions: metastatic/advanced pancreatic cancer; cited from earlier work

CXCR4, sequence (P61073 whole entry, species assumed): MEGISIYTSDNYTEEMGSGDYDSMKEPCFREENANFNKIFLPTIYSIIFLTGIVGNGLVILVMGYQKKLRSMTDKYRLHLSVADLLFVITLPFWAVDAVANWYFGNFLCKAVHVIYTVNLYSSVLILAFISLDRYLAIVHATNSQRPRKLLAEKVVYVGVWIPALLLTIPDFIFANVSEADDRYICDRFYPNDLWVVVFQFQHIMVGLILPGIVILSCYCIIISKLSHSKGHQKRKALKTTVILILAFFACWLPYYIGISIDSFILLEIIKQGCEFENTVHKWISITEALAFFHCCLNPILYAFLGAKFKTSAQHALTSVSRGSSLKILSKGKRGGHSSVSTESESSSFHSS

Substance | IC50 [1] | solubility in 0.45% Sodium Chloride (half normal saline) ([2]; 0.45% Sodium Chloride) | solubility in water ([2]; water) | level of effector CD8 cells that express Granzyme B in the tumor microenvironment [3] | level of myeloid derived suppressor cells (MDSCs) in the tumor microenvironment [3] | effect on viability of human keratinocytes and normal human hematopoietic cells [4] | increase in median survival [5]
BL-8040 (RR[2Nal]CY[Cit]K[dK]PYR[Cit]CR-NH2; not fully specified (residue 1, N-terminus, bridges); cysteine pairing not given here) | 0.54 to 4.5 nM | freely soluble | freely soluble | increasing | decreasing | did not affect the viability | –
FOLFIRINOX | – | – | – | – | – | – | 4.3 months
